From patent publication US20200377604A1 (Genentech, published 2020)

Molecular target: T1, knob Fc F241R/F243S (Homo sapiens (Human), UniProt P0DOX5 223-449 = IgG part, F241R; F243S)
T1 construct: Positions are EU numbers; the entry starts at 221; also called Knob F241R/F243S; F241R/F243S mutant knob
Assay: SPR (BioRad ProteOn), immobilized ligand Knob F241R/F243S, analyte Knob F241S/F243R at 6.25-200 nM
Protocol: FIGS. 11A-11E are a series of the surface plasmon resonance (SPR) spectra curves from experiments using an immobilized ligand. The analyte was passed over the ligand and the homodimerization was monitored. Analyte concetrations were tested at 6.25 nM, 12.5 nM, 25 nM, 50 nM, 100 nM and 200 nM. The ligands were: (A) The knob wild-type, (B) hole wild-type, (C) knob F241R/F243S, (D) knob F241S/F243R, and (E) hole F241S/F243R.
Using a BioRad ProteOn™ system, knob wild-type, hole wild-type, knob F241R/F243S, knob F241S/F243R, and hole F241S/F243R ligands were immobilized on an NHS activated sensor. The analyte, knob F241S/F243R, was passed over the sensor in 25 mM Tris 150 mM NaCl 0.05% Tween-20 pH 8.0. Analyte concentrations were 200 nM, 100 nM, 50 nM, 25 nM, 12.5 nM, and 6.25 nM. The ProteOnM chip was regenerated between each analyte concentration using 10 mM Glycine pH3. […] The Kd for the heterodimers is in the single digit nanomolar range in both cases.

B1: knob Fc F241S/F243R (other, name in EU numbering)
chain: DKTHTSPPSPAPELLGGPSVSLRPPKPKDTLMISRTPEVTCVVVDVSHEDPEVKFNWYVDGVEVHNAKTKPREEQYNSTYRVVSVLTVLHQDWLNGKEYKCKVSNKALPAPIEKTISKAKGQPREPQVYTLPPSREEMTKNQVSLWCLVKGFYPSDIAVEWESNGQPENNYKTTPPVLDSDGSFFLYSKLTVDKSRWQQGNVFSCSVMHEALHNHYTQKSLSLSPGK
notes: Positions are EU numbers; the entry starts at 221; This was the analyte in the SPR experiment; also called Knob F241S/F243R; F241S/F243R mutant knob
B1: no binding (tested: 200 nM).
